Source: paper PMC9367181 (Chemico-Biological Interactions, 2022)

T1: human carboxylesterase 1 (Homo sapiens, UniProt P23141)
T1 sequence (P23141 18-567): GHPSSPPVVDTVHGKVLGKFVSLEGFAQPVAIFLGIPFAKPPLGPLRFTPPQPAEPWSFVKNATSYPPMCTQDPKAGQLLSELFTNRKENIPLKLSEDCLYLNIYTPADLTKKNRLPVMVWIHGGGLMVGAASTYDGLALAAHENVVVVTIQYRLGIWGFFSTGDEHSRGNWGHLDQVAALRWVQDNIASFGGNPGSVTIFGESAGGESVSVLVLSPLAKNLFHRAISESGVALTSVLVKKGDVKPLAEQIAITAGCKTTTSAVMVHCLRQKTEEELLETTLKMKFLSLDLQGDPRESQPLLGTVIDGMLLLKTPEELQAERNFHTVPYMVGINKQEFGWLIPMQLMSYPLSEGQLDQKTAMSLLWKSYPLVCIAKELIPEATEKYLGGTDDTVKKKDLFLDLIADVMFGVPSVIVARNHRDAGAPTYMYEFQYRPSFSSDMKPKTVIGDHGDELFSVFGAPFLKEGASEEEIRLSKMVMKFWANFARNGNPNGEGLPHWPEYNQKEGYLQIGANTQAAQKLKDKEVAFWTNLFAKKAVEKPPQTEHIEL


What was measured:
human carboxylesterase 1 = biological target: T1, human carboxylesterase 1; experiment: inhibition of remdesivir hydrolysis in CES1-expressing cell S9 fraction, HPLC; type: biochemical
[1] = substrate: CCC(CC)COC(=O)[C@H](C)N[P@](=O)(OC[C@H]1O[C@@](C#N)(c2ccc3c(N)ncnn23)[C@H](O)[C@@H]1O)Oc1ccccc1; experiment: Michaelis-Menten kinetics of hydrolysis to GS-704277 in S9 fraction, HPLC; type: biochemical, Homo sapiens

| Molecule | Ki (human carboxylesterase 1) | Km [1] |
| --- | --- | --- |
| C=C(C)[C@@H]1CCC(C)=C[C@H]1c1c(O)cc(CCCCC)cc1O [cannabidiol] | 890 nM |  |
| human carboxylesterase 1 (Homo sapiens) (protein) GHPSSPPVVDTVHGKVLGKFVSLEGFAQPVAIFLGIPFAKPPLGPLRFTPPQPAEPWSFVKNATSYPPMCTQDPKAGQLLSELFTNRKENIPLKLSEDCLYLNIYTPADLTKKNRLPVMVWIHGGGLMVGAASTYDGLALAAHENVVVVTIQYRLGIWGFFSTGDEHSRGNWGHLDQVAALRWVQDNIASFGGNPGSVTIFGESAGGESVSVLVLSPLAKNLFHRAISESGVALTSVLVKKGDVKPLAEQIAITAGCKTTTSAVMVHCLRQKTEEELLETTLKMKFLSLDLQGDPRESQPLLGTVIDGMLLLKTPEELQAERNFHTVPYMVGINKQEFGWLIPMQLMSYPLSEGQLDQKTAMSLLWKSYPLVCIAKELIPEATEKYLGGTDDTVKKKDLFLDLIADVMFGVPSVIVARNHRDAGAPTYMYEFQYRPSFSSDMKPKTVIGDHGDELFSVFGAPFLKEGASEEEIRLSKMVMKFWANFARNGNPNGEGLPHWPEYNQKEGYLQIGANTQAAQKLKDKEVAFWTNLFAKKAVEKPPQTEHIEL |  | 14.19 µM |
| human carboxylesterase 1 (Homo sapiens; G143E) (protein) GHPSSPPVVDTVHGKVLGKFVSLEGFAQPVAIFLGIPFAKPPLGPLRFTPPQPAEPWSFVKNATSYPPMCTQDPKAGQLLSELFTNRKENIPLKLSEDCLYLNIYTPADLTKKNRLPVMVWIHGGELMVGAASTYDGLALAAHENVVVVTIQYRLGIWGFFSTGDEHSRGNWGHLDQVAALRWVQDNIASFGGNPGSVTIFGESAGGESVSVLVLSPLAKNLFHRAISESGVALTSVLVKKGDVKPLAEQIAITAGCKTTTSAVMVHCLRQKTEEELLETTLKMKFLSLDLQGDPRESQPLLGTVIDGMLLLKTPEELQAERNFHTVPYMVGINKQEFGWLIPMQLMSYPLSEGQLDQKTAMSLLWKSYPLVCIAKELIPEATEKYLGGTDDTVKKKDLFLDLIADVMFGVPSVIVARNHRDAGAPTYMYEFQYRPSFSSDMKPKTVIGDHGDELFSVFGAPFLKEGASEEEIRLSKMVMKFWANFARNGNPNGEGLPHWPEYNQKEGYLQIGANTQAAQKLKDKEVAFWTNLFAKKAVEKPPQTEHIEL |  | 93.94 µM |
